Key:
[1] = target: human-mouse chimeric DLK1 HM8-mGFP on HEK293T cells (region 8 of human DLK1 long form replaced with mouse); test: direct flow cytometry, control antibody at 20ug/ml, cells 849 HEK293T DLK1 HM8-mGFP; no ab 1,653.50; same antibody on HEK293T parental 4,432.00
[2] = target: human-mouse chimeric DLK1 HM4-mGFP on HEK293T cells (region 4 of human DLK1 long form replaced with mouse); test: direct flow cytometry, control antibody at 20ug/ml, cells 837 HEK293T DLK1HM4-mGFP; no ab 1,516.00; same antibody on HEK293T parental 4,432.00
[3] = target: human-mouse chimeric DLK1 HM5-mGFP on HEK293T cells (region 5 of human DLK1 long form replaced with mouse); test: direct flow cytometry, control antibody at 20ug/ml, cells 850 HEK293T DLK1 HM5-mGFP; no ab 1,807.00; same antibody on HEK293T parental 4,432.00
Sequence of human-mouse chimeric DLK1 HM5-mGFP on HEK293T cells (region 5 of human DLK1 long form replaced with mouse) (chain, as listed by the source mutant limits assumed, form in doubt): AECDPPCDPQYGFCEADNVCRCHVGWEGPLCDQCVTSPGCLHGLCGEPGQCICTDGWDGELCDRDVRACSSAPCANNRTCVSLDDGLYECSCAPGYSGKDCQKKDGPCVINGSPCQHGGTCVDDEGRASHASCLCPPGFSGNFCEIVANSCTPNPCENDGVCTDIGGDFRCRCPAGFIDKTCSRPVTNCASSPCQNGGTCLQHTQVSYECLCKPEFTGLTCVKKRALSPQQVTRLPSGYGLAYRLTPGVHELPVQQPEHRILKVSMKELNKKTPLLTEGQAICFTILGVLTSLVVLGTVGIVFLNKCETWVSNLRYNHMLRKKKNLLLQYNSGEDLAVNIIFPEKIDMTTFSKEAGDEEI

[4] = target: human DLK1 short form (isoform 2, DLK1-MB) fused to mGFP, expressed on HEK293T cells (human) (UniProt P80370); test: direct flow cytometry, AF647-labelled control antibody at 20ug/ml, cells 832-HEK293T DLK1 Iso2-mGFP mass pop (short form); same antibody on HEK293T parental 21,331.00
Sequence of human DLK1 short form (isoform 2, DLK1-MB) fused to mGFP, expressed on HEK293T cells (human) (P80370 other isoform, or with tags, fused parts or gaps): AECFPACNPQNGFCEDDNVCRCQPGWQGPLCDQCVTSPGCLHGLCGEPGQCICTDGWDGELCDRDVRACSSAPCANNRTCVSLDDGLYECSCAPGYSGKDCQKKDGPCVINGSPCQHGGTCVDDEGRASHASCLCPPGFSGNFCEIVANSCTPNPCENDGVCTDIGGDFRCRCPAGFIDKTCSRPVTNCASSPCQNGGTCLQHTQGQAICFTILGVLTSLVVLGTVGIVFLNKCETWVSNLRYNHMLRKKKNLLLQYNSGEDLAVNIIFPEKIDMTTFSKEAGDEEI

[5] = target: human DLK1 long form (isoform 1, DLK1-FL) fused to mGFP, overexpressed on HEK293T cells (human) (UniProt P80370); test: indirect flow cytometry, 1° control antibody at 4ug/ml detected with an AF-647 secondary antibody, cells HEK293T DLK1 mGFP G06 (long form); same antibody on HEK293T parental 3,130.00
Sequence of human DLK1 long form (isoform 1, DLK1-FL) fused to mGFP, overexpressed on HEK293T cells (human) (P80370 24-383): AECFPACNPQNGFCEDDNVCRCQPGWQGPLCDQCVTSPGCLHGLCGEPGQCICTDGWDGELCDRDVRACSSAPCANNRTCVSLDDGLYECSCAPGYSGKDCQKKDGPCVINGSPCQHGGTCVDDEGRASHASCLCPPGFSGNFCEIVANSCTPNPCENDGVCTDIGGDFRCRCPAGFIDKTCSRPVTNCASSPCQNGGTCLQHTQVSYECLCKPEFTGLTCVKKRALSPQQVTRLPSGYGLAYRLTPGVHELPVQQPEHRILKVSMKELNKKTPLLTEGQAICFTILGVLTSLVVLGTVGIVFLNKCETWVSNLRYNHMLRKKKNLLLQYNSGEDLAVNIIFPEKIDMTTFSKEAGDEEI

[6] = target: human-mouse chimeric DLK1 HM6-mGFP on HEK293T cells (region 6 of human DLK1 long form replaced with mouse); test: direct flow cytometry, control antibody at 20ug/ml, cells 851 HEK293T DLK1 HM6-mGFP; no ab 1,992.00; same antibody on HEK293T parental 4,432.00
[7] = target: human DLK1 long form (isoform 1, DLK1-FL) fused to mGFP, overexpressed on HEK293T cells (human) (UniProt P80370); test: direct flow cytometry, control antibody at 20ug/ml, cells HEK293T DLK1 mGFP G06 (long form); no ab 1,649.00; same antibody on HEK293T parental 4,432.00
[8] = target: human-mouse chimeric DLK1 HM1-mGFP on HEK293T cells (region 1 of human DLK1 long form replaced with mouse); test: direct flow cytometry, control antibody at 20ug/ml, cells 834 HEK293T DLK1HM1-mGFP; no ab 1,385.00; same antibody on HEK293T parental 4,432.00
[9] = target: human DLK1 short form (isoform 2, DLK1-MB) fused to mGFP, expressed on HEK293T cells (human) (UniProt P80370); test: indirect flow cytometry, 1° control antibody at 4ug/ml detected with an AF-647 secondary antibody, cells 832-HEK293T DLK1 Iso2-mGFP mass pop (short form); same antibody on HEK293T parental 3,130.00
[10] = target: human-mouse chimeric DLK1 HM7-mGFP on HEK293T cells (region 7 of human DLK1 long form replaced with mouse); test: direct flow cytometry, control antibody at 20ug/ml, cells 848 HEK293T DLK1 HM7-mGFP; no ab 1,583.50; same antibody on HEK293T parental 4,432.00
[11] = target: human-mouse chimeric DLK1 HM3-mGFP on HEK293T cells (region 3 of human DLK1 long form replaced with mouse); test: direct flow cytometry, control antibody at 20ug/ml, cells 836 HEK293T DLK1HM3-mGFP; no ab 1,657.50; same antibody on HEK293T parental 4,432.00
[12] = target: human-mouse chimeric DLK1 HM2-mGFP on HEK293T cells (region 2 of human DLK1 long form replaced with mouse); test: direct flow cytometry, control antibody at 20ug/ml, cells 835 HEK293T DLK1HM2-mGFP; no ab 1,251.00; same antibody on HEK293T parental 4,432.00
[13] = target: human DLK1 long form (isoform 1, DLK1-FL) fused to mGFP, overexpressed on HEK293T cells (human) (UniProt P80370); test: direct flow cytometry, AF647-labelled control antibody at 20ug/ml, cells HEK293T DLK1 mGFP G06 (long form); same antibody on HEK293T parental 21,331.00
[14] = target: human DLK1 short form (isoform 2, DLK1-MB) fused to mGFP, expressed on HEK293T cells (human) (UniProt P80370); test: direct flow cytometry, AF647-labelled antibody at 20ug/ml, cells 832-HEK293T DLK1 Iso2-mGFP mass pop (short form); same antibody on HEK293T parental 17,562.00; hIgG1-AF647 on the same cells 29,714.00
[15] = target: human DLK1 long form (isoform 1, DLK1-FL) fused to mGFP, overexpressed on HEK293T cells (human) (UniProt P80370); test: direct flow cytometry, AF647-labelled antibody at 20ug/ml, cells HEK293T DLK1 mGFP G06 (long form); same antibody on HEK293T parental 17,562.00
[16] = target: human DLK1 long form (isoform 1, DLK1-FL) fused to mGFP, overexpressed on HEK293T cells (human) (UniProt P80370); test: indirect flow cytometry, 1° antibody at 4ug/ml detected with an AF-647 secondary antibody, cells HEK293T DLK1 mGFP G06 (long form); same antibody on HEK293T parental 2,827.00
[17] = target: human DLK1 short form (isoform 2, DLK1-MB) fused to mGFP, expressed on HEK293T cells (human) (UniProt P80370); test: indirect flow cytometry, 1° antibody at 4ug/ml detected with an AF-647 secondary antibody, cells 832-HEK293T DLK1 Iso2-mGFP mass pop (short form); same antibody on HEK293T parental 2,827.00; hIgG1 on the same cells 2,895.00
[18] = target: DLK1 ECD-mFc long form (human DLK1-FL, isoform 1) (human) (UniProt P80370); test: ELISA, plate coated with long form of DLK1 ECD-mFc (isoform 1), anti-human IgG Fc-HRP, OD450nm
Sequence of DLK1 ECD-mFc long form (human DLK1-FL, isoform 1) (human) (P80370 24-303): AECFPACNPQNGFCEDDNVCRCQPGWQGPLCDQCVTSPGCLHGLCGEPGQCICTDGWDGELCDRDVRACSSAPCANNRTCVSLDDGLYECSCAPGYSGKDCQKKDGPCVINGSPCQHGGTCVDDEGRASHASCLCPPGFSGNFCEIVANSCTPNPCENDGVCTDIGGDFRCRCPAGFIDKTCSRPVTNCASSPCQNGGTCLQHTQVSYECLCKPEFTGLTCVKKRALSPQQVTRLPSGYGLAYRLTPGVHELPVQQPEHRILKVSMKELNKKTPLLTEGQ

[19] = target: DLK1 ECD-mFc long form (human DLK1-FL, isoform 1) (human) (UniProt P80370); test: ELISA, plate coated with DLK1 ECD-mFc long form, anti-human IgG Fc-HRP detection
[20] = target: human DLK1 endogenously expressed on COR-L279 small cell lung carcinoma cells (human) (UniProt P80370); test: flow cytometry, (His)6-tagged scFv detected with AF647-anti-His tag 2° Ab, CORL279 (DLK1+) cells; same scFv on M202 (DLK1-) 9,460.00; 2° Ab only on CORL279 63,034.00; no ab 4,394.00
[21] = target: human DLK1 endogenously expressed on COR-L279 small cell lung carcinoma cells (human) (UniProt P80370); test: flow cytometry, (His)6-tagged scFv detected with AF647-anti-His tag 2° Ab, CORL279 (DLK1+) cells; same scFv on M202 (DLK1-) 11,680.00; 2° Ab only on CORL279 63,034.00; no ab 4,394.00
[22] = target: human DLK1 endogenously expressed on COR-L279 small cell lung carcinoma cells (human) (UniProt P80370); test: flow cytometry, (His)6-tagged scFv detected with AF647-anti-His tag 2° Ab, CORL279 (DLK1+) cells; same scFv on M202 (DLK1-) 8,072.00; 2° Ab only on CORL279 63,034.00; no ab 4,394.00
[23] = target: human DLK1 endogenously expressed on COR-L279 small cell lung carcinoma cells (human) (UniProt P80370); test: flow cytometry, ADC at 20µg/ml, row CORL-279 (SCLC, DLK+); row M202 of the same block: 4,385.0

Sequence of human-mouse chimeric DLK1 HM8-mGFP on HEK293T cells (region 8 of human DLK1 long form replaced with mouse) (chain, as listed by the source mutant limits assumed, form in doubt): as the sequence (P80370 24-383) above, with A93T, Y96F, K103H, D105A, T120A, R127Q counted along it

Work on “non-targeting human IgG1 negative control antibody” yielded an FL4H/AF-647 signal [1] of 4360, an FL4H/AF-647 signal [2] of 8480 and an FL4H/AF-647 signal [3] of 7660. The FL4H/AF-647 signal [4] was 29700, the FL4H/AF-647 signal [5] was 4120 and the FL4H/AF-647 signal [6] was 6460. For the same molecule, the FL4H/AF-647 signal [7] was 9870, the FL4H/AF-647 signal [8] was 8760 and the FL4H/AF-647 signal [9] was 2900. The FL4H/AF-647 signal [10] was 5270, the FL4H/AF-647 signal [11] was 8770 and the FL4H/AF-647 signal [12] was 8510. For the same molecule, the FL4H/AF-647 signal [13] was 47900.

B1: LegoChem 18A5 benchmark anti-DLK1 antibody (antibody, from another filing, V domains shown)
VH: QVQLVQSGGAVVQPGHSLRLSCEASGFKFKDYGMHWVRQAPGKGLEWLAVISHDGRNKNYADSVKGRLTISRDNSKNTLSFQMNSLRAEDTAVYYCVRDWSYAFDIWGQGTLVTVSS
VL: DIQMTQSPSFLSASVGDRVNITCRASQDISRRLAWYQQKPGKAPKLLIYGAASLQSAVASRFSGSGSGTEFTLTISSLQPEDFANYYCQQIYTTPLTFGGGTKVEIK
B1 was tested, and the FL4H/AF-647 signal [14] was 43500, the FL4H/AF-647 signal [15] was 153000 and the FL4H/AF-647 signal [16] was 20400. For the same molecule, the FL4H/AF-647 signal [17] was 3350, the EC50 [18] was 17.9 nM and the EC50 [19] was 17.9 nM.

B2: 04-0547-h2scfv, single chain Fv of 04-0547-h2 DLK1 antibody, with C-terminal (His)6 tag (scFv)
scFv: DIQMTQSPSSLSASVGDRVTITCRASHDVSTAVAWYQQKPGKAPKLLIYSASYRYTGVPSRFSGSGSGTDFTLTISSLQPEDFATYYCQQHYRIPLTFGQGTKLEIKGGGGSGGGGSGGGGSEVQLVESGGGLVQPGGSLRLSCAASGFSISDYYMAWVRQAPGKGLEWVANINYDGTNTYYADSVKGRFTISRDNSKNTLYLQMNSLRAEDTAVYYCVRSYYYYGMEYWGQGTTVTVSSHHHHHH
Molecule B2 has an average AF-647 fluorescence (FL4-H) [20] of 763000.

B3: 04-0561-F1scfv, single chain Fv of 04-0561-F1 DLK1 antibody, with C-terminal (His)6 tag (scFv)
scFv: DIVMTQSPDSLAVSLGERVTMNCKSSQSLLQSSNQKNYLAWYQQKPGQPPKLLVYFASTRESGVPDRFSGSGSGTDFTLTISSVQAEDVAVYYCQQHYSIPLTFGQGTKLEIKGGGGSGGGGSGGGGSQVQLQESGPGLVKPSETLSLTCTVSGFSLSIYSVHWVRQPPGKGLEWIGLIWGGGSTDYNPSLKSRVTISKDTSKNQVSLKLSSVTAADTAVYYCARKEGNYLWFAYWGQGTLVTVSSHHHHHH
B3 gave an average AF-647 fluorescence (FL4-H) [21] of 1.43e+06.

B4: 04-0562-h10scfv, single chain Fv of 04-0562-h10 DLK1 antibody, with C-terminal (His)6 tag (scFv)
scFv: DIVMTQSPLSLPVTPGEPASISCRSSQSLVHINGNTYLHWYLQKPGQSPQLLIYKVSNRFSGVPDRFSGSGSGTDFTLKISRVEAEDVGVYYCSQTTHVPWTFGQGTKLEIKGGGGSGGGGSGGGGSQVQLQESGPGLVKPSETLSLTCTVSGFSLTSYGVSWVRQPPGKGLEWIGVIWGDGSTSYNPSLKSRVTISKDTSKNQVSLKLSSVTAADTAVYYCAKPDGPLGQGTLVTVSSHHHHHH
Work on B4 yielded an average AF-647 fluorescence (FL4-H) [22] of 622000.

B5: 04-0547-h2-MMAE-AF647 (04-0547-h2 antibody conjugated to both MMAE and Alexa Fluor 647) (antibody, IgG1, V domains shown)
VH: EVQLVESGGGLVQPGGSLRLSCAASGFSISDYYMAWVRQAPGKGLEWVANINYDGTNTYYADSVKGRFTISRDNSKNTLYLQMNSLRAEDTAVYYCVRSYYYYGMEYWGQGTTVTVSS
VL: DIQMTQSPSSLSASVGDRVTITCRASHDVSTAVAWYQQKPGKAPKLLIYSASYRYTGVPSRFSGSGSGTDFTLTISSLQPEDFATYYCQQHYRIPLTFGQGTKLEIK
modifications: MC-VC-PAB-MMAE on free thiols of cysteines (see heavy chain); MC-VC-PAB-MMAE on free thiols of cysteines (about 90% at reduced interchain disulfides, average 4 MMAE per antibody); Alexa Fluor 647 label
In the case of B5, the ADC Binding Activity by Flow Cytometry (20µg/ml) [23] is reported as 225000.

Reference: patent publication US20250042992A1 (University of California, published 2025)
